{
  "source": "paper PMC5220579",
  "about": "(Molecular immunology, 2016)",
  "binders": {"B1": {"name": "IgV domain of human TIGIT (residues 22 to 137) (domain or fragment, UniProt Q495A1 22-137, looked up)", "chain": "MMTGTIETTGNISAEKGGSIILQCHLSSTTAQVTQVNWEQQDQLLAICNADLGWHISPSFKDRVAPGPGLGLTLQSLTVNDTGEYFCIYHTYPDGTYTGRIFLEVLESSVAEHGAR"}},
  "key": {"[1]": {"biological_target": "T1, human PVR (poliovirus receptor) (human, UniProt P15151 21-343)", "T1 sequence (looked up)": "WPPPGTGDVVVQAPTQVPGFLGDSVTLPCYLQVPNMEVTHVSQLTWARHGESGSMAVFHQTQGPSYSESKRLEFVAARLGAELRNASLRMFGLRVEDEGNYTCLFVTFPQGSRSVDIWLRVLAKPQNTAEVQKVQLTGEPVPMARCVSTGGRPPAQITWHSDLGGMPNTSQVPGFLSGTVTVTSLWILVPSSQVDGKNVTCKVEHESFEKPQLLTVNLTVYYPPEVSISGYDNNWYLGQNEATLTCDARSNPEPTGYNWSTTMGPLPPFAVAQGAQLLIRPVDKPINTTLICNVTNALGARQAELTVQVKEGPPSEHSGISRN", "test": "SPR"}, "[2]": {"biological_target": "T2, IgV domain of human nectin-2 (human, UniProt Q92692 32-158)", "T2 sequence": "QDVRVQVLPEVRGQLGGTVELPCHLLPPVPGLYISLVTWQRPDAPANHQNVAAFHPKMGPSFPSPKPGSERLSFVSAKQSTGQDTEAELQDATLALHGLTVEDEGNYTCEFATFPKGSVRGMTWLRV", "test": "SPR"}},
  "data": [
    {"binder": "B1", "values": [
      {"measurement": "Kd", "setting": "[1]", "value": "0.36 ± 0.025", "unit": "µM"},
      {"measurement": "Kd", "setting": "[2]", "value": "11.5 ± 1.1", "unit": "µM"}
    ]}
  ]
}
